The text below walks through data of patent US20180185450A1 (Sanofi, published 2018).

For one experiment, the target named is human GLP-1 receptor (human, UniProt P43220 24-463). The experiment is described as follows: cell-based or functional assay.
The target of another experiment is human glucagon receptor (human, UniProt P47871 26-477). The experiment is described as follows: cell-based or functional assay.

Numbered stars: 1 amine (or outer) side, 2 acyl side, 3 side chain; on linkers, the order of the positions; unused ones are H or OH. Square brackets hold non-standard residues; d marks the D form. Side chains are listed from the residue outwards. Ends that are not written are not given here. γGlu = O=C(O)[C@H](CCC(=O)[*:2])N[*:1]; x53 = not defined here; Aib = CC(C)(N)C(=O)O

Chain of human glucagon receptor (P47871 26-477): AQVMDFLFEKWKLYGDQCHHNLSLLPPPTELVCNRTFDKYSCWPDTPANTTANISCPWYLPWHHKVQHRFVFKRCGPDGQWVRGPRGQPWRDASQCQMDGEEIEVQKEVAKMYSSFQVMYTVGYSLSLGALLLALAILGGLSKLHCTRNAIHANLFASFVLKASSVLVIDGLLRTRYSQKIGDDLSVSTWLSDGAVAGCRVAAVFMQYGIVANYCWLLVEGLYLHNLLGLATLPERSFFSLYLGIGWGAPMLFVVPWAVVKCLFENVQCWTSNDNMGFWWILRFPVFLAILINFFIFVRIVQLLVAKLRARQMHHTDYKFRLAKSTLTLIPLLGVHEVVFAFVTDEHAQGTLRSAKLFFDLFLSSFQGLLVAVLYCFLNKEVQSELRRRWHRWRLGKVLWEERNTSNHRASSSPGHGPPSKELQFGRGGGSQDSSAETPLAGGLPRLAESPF

For the molecule HXQGTFTSDLSKQKDERRAKDFIEWLKNGGPSSGAPPPS (dSer at 2; K(γE-x53) at 14; C-terminal NH2) [SEQ ID NO: 87], in the experiment with human GLP-1 receptor, the “EC50 hGLP-1R (cAMP)” value came out at 3 pM. Further, the “EC50 hGlucagon-R (cAMP)” value in the experiment with human glucagon receptor is 1.3 pM.
For the molecule HXQGTFTSDLSKQKESRAAQDFIEWLKAGGPSSGAPPPS (dSer at 2; K(γE-x70) at 14; C-terminal NH2) [SEQ ID NO: 51], the “EC50 hGLP-1R (cAMP)” value with human GLP-1 receptor worked out at 2.7 pM. Moreover, the “EC50 hGlucagon-R (cAMP)” value in the experiment with human glucagon receptor was 3 pM.
Regarding HXHGTFTSDLSKQKESRRAQDFIEWLKAGGPSSGAPPPS (dSer at 2; K(γE-x53) at 14; C-terminal NH2) [SEQ ID NO: 73], the “EC50 hGLP-1R (cAMP)” value in the experiment with human GLP-1 receptor turned out to be 4.1 pM. The “EC50 hGlucagon-R (cAMP)” value with human glucagon receptor was determined as 1.7 pM.
On to HXQGTFTSDLSKQKESRAAQDFIEWLKAGGPSSGAPPPS (dSer at 2; K(γE-x81) at 14; C-terminal NH2) [SEQ ID NO: 63], for which the “EC50 hGLP-1R (cAMP)” value in the experiment with human GLP-1 receptor amounted to 4.9 pM. Also, the “EC50 hGlucagon-R (cAMP)” value with human glucagon receptor came out at 8.4 pM.
Taken in the same sequence, the figures for HXQGTFTSDLSKQKESRAAQLFIEWLKAGGPSSGAPPPS (dSer at 2; K(γE-x53) at 14; C-terminal NH2) [SEQ ID NO: 70] were 6.5 pM and 40.9 pM.
Taken in the same sequence, the figures for HXQGTFTSDLSKQKESRRAXDFIEWLKAGGPSSGAPPPS (dSer at 2; K(x53) at 14; Aib at 20; C-terminal NH2) [SEQ ID NO: 76] were 44.9 pM and 162 pM.
Taken in the same sequence, the figures for HXQGTFTSDLSKQKESRRAQLFIEWLKAGGPSSGAPPPS (dSer at 2; K(x53) at 14; C-terminal NH2) [SEQ ID NO: 69] were 44.8 pM and 52.4 pM.
In the case of HXQGTFTSDLSKQKESRAAQDFIEWLKAGGPSSGAPPPS (dSer at 2; K(GABA-x60) at 14; C-terminal NH2) [SEQ ID NO: 58], the “EC50 hGLP-1R (cAMP)” value in the experiment with human GLP-1 receptor stood at 45.6 pM. Also, in the experiment with human glucagon receptor, the “EC50 hGlucagon-R (cAMP)” value amounted to 15.1 pM.
As to HXQGTFTSDLSKQXESRRAQDFIEWLKAGGPSSGAPPPS (dSer at 2; Dab(γE-x53) at 14; C-terminal NH2) [SEQ ID NO: 72], the “EC50 hGLP-1R (cAMP)” value with human GLP-1 receptor turned out to be 25.9 pM. Besides, in the experiment with human glucagon receptor, the “EC50 hGlucagon-R (cAMP)” value is 386 pM.
For HXQGTFTSDLSKQKESRRAQLFIEWLKAGGPSSGAPPPS (dSer at 2; K(γE-x53) at 14; C-terminal NH2) [SEQ ID NO: 68], the “EC50 hGLP-1R (cAMP)” value with human GLP-1 receptor was 7.9 pM. Moreover, the “EC50 hGlucagon-R (cAMP)” value in the experiment with human glucagon receptor was 5.7 pM.
With HXQGTFTSDLSKQKESRAAQDFIEWLKAGGPSSGAPPPS (dSer at 2; K(GABA-x74) at 14; C-terminal NH2) [SEQ ID NO: 56], in the experiment with human GLP-1 receptor, the “EC50 hGLP-1R (cAMP)” value amounted to 4.5 pM. Also, in the experiment with human glucagon receptor, the “EC50 hGlucagon-R (cAMP)” value is 29.3 pM.
Taken in the same sequence, the figures for HXQGTFTSDLSKQKDSRRAQDFIEWLKNGGPSSGAPPPS (dSer at 2; K(γE-x53) at 14; C-terminal NH(n-Propyl)) [SEQ ID NO: 10] were 9.2 pM and 1.7 pM.
For the molecule HXQGTFTSDLSKQKDSRRAQDFIEWLKNGGPSSGAPPPS (dSer at 2; K(γE-x70) at 14; C-terminal NH2) [SEQ ID NO: 8], the “EC50 hGLP-1R (cAMP)” value with human GLP-1 receptor turned out to be 6.3 pM. In addition, the “EC50 hGlucagon-R (cAMP)” value with human glucagon receptor was determined as 2.3 pM.
Taken in the same sequence, the figures for HXQGTFTSDLSKQKESRRAQDFIEWLKEGGPSSGRPPPS (dSer at 2; K(γE-x53) at 14; C-terminal NH2) [SEQ ID NO: 82] were 11.7 pM and 4.7 pM.
The matching figures for HXQGTFTSDLSKQKESRAAQDFIEWLKAGGPSSGAPPPS (dSer at 2; K(γE-x82) at 14; C-terminal NH2) [SEQ ID NO: 64]: 3.1 pM and 6.9 pM.
The matching figures for HXQGTFTSDLSKQKESRAAQDFIEWLKAGGPSSGAPPPS (dSer at 2; K(γE-x77) at 14; C-terminal NH2) [SEQ ID NO: 60]: 38.4 pM and 19.3 pM.
Turning to HXQGTFTSDLSKQKDSRRAQDFIEWLKDGGPSSGAPPPS (dSer at 2; K(x53) at 14; C-terminal NH2) [SEQ ID NO: 81], the “EC50 hGLP-1R (cAMP)” value with human GLP-1 receptor was determined as 48 pM. For the same molecule, in the experiment with human glucagon receptor, the “EC50 hGlucagon-R (cAMP)” value was determined as 7.1 pM.
The matching figures for HXQGTFTSDLSKQKESRRAQDFIEWLKKGGPSSGAPPPS (dSer at 2; K(γE-x53) at 14; C-terminal NH2) [SEQ ID NO: 85]: 8.1 pM and 10.4 pM.
Taken in the same sequence, the figures for HXQGTFTSDLSKQKESRAAQDFIEWLKAGGPSSGAPPPS (dSer at 2; K(γE-x76) at 14; C-terminal NH2) [SEQ ID NO: 59] were 7.9 pM and 6.8 pM.
Taken in the same sequence, the figures for HXQGTFTSDLSKQXESRRAQDFIEWLKAGGPSSGAPPPS (dSer at 2; Orn(γE-x53) at 14; C-terminal NH2) [SEQ ID NO: 71] were 20.5 pM and 5.6 pM.
In the case of HXQGTFTSDLSKQKESRAAQDFIEWLKAGGPSSGAPPPS (dSer at 2; K(x53) at 14; C-terminal NH2) [SEQ ID NO: 66], the “EC50 hGLP-1R (cAMP)” value with human GLP-1 receptor was determined as 8.4 pM. Also, the “EC50 hGlucagon-R (cAMP)” value with human glucagon receptor is 113 pM.
As to HXQGTFTSDLSKQKESRAAQDFIEWLKAGGPSSGAPPPS (dSer at 2; K(βA-βA-x70) at 14; C-terminal NH2) [SEQ ID NO: 54], the “EC50 hGLP-1R (cAMP)” value with human GLP-1 receptor turned out to be 4.8 pM. Moreover, the “EC50 hGlucagon-R (cAMP)” value with human glucagon receptor worked out at 4 pM.
The matching figures for HXQGTFTSDLSKQKDSRRAQDFIEWLKNGGPSSGAPPPS (dSer at 2; K(γE-x69) at 14; C-terminal NH2) [SEQ ID NO: 90]: 8.8 pM and 3.7 pM.
The matching figures for HXQGTFTSDLSKQKDSRRAQDFIEWLKNGGPSSGAPPPS (dSer at 2; K(γE-x60) at 14; C-terminal NH2) [SEQ ID NO: 89]: 35.6 pM and 13.7 pM.
The matching figures for HXQGTFTSDLSKQKDSRRAQDFIEWLKDGGPSSGAPPPS (dSer at 2; K(γE-x53) at 14; C-terminal NH2) [SEQ ID NO: 80]: 5.8 pM and 1 pM.
Take HXQGTFTSDLSKQKESRAAQDFIEWLKAGGPSSGAPPPS (dSer at 2; K(γE-x75) at 14; C-terminal NH2) [SEQ ID NO: 9]: in the experiment with human GLP-1 receptor, the “EC50 hGLP-1R (cAMP)” value was determined as 2.2 pM. Further, the “EC50 hGlucagon-R (cAMP)” value with human glucagon receptor came to 4.1 pM.
Taken in the same sequence, the figures for HXQGTFTSDLSKQKESRAAQDFIEWLKAGGPSSGAPPPS (dSer at 2; K(γE-x79) at 14; C-terminal NH2) [SEQ ID NO: 61] were 5.3 pM and 16 pM.
The matching figures for HXQGTFTSDLSKQKESRAAQDFIEWLKAGGPSSGAPPPS (dSer at 2; K(γE-x80) at 14; C-terminal NH2) [SEQ ID NO: 62]: 3.9 pM and 10.6 pM.
Taken in the same sequence, the figures for HXQGTFTSDLSKQKESKAAQDFIEWLKAGGPSSGAPPPS (dSer at 2; K(GABA-x53) at 14; C-terminal NH2) [SEQ ID NO: 7] were 3.5 pM and 20.7 pM.
HXQGTFTSDLSKQKDSRRAXDFIEWLKAGGPSSGAPPPS (dSer at 2; K(γE-x53) at 14; Aib at 20; C-terminal NH2) [SEQ ID NO: 67]: the “EC50 hGLP-1R (cAMP)” value with human GLP-1 receptor came to 15.7 pM. Moreover, the “EC50 hGlucagon-R (cAMP)” value with human glucagon receptor turned out to be 3 pM.
Taken in the same sequence, the figures for HXQGTFTSDLSKQKDSQAAQDFIEWLKNTGPSSGAPPPS (dSer at 2; K(γE-x53) at 14; C-terminal NH2) [SEQ ID NO: 86] were 4.9 pM and 3.5 pM.
As for HXQGTFTSDLSKQKESRRAQDFIEWLKEGGPSSGRPPPS (dSer at 2; K(x53) at 14; C-terminal NH2) [SEQ ID NO: 83], the “EC50 hGLP-1R (cAMP)” value with human GLP-1 receptor worked out at 53.9 pM. Further, the “EC50 hGlucagon-R (cAMP)” value in the experiment with human glucagon receptor worked out at 41.3 pM.
Turning to HXQGTFTSDLSKQKEKRRAQDFIEWLKNGGPSSGAPPPS (dSer at 2; K(γE-x53) at 14; C-terminal NH2) [SEQ ID NO: 88], the “EC50 hGLP-1R (cAMP)” value with human GLP-1 receptor is 2.4 pM. Moreover, the “EC50 hGlucagon-R (cAMP)” value in the experiment with human glucagon receptor came to 1.6 pM.
Taken in the same sequence, the figures for HXQGTFTSDLSKQKESRRAQDFIEWLKXGGPSSGAPPPS (dSer at 2; K(γE-x53) at 14; Aib at 28; C-terminal NH2) [SEQ ID NO: 79] were 23.3 pM and 7.5 pM.
Taken in the same sequence, the figures for HXQGTFTSDLSKQKESRAAQDFIEWLKAGGPSSGAPPPS (dSer at 2; K(GABA-x70) at 14; C-terminal NH2) [SEQ ID NO: 53] were 5.4 pM and 6.5 pM.
Take HXQGTFTSDLSKQKESRAAQDFIEWLKAGGPSSGAPPPS (dSer at 2; K(γE-x74) at 14; C-terminal NH2) [SEQ ID NO: 55]: the “EC50 hGLP-1R (cAMP)” value with human GLP-1 receptor is 5.4 pM. Also, in the experiment with human glucagon receptor, the “EC50 hGlucagon-R (cAMP)” value came out at 15.8 pM.
The matching figures for HXQGTFTSDLSKQKESRAAQDFIEWLKAGGPSSGAPPPS (dSer at 2; K(γE-x70) at 14; C-terminal NH2) [SEQ ID NO: 65]: 5 pM and 5.6 pM.
Taken in the same sequence, the figures for HXQGTFTSDLSKQKESRAAQDFIEWLKAGGPSSGAPPPS (dSer at 2; K(γE-γE-x70) at 14; C-terminal NH2) [SEQ ID NO: 52] were 1.9 pM and 2 pM.
The matching figures for HXQGTFTSDLSKQKESRAAQDFIEWLKAGGPSSGAPPPS (dSer at 2; K(γE-x60) at 14; C-terminal NH2) [SEQ ID NO: 57]: 45 pM and 8 pM.
With HXQGTFTSDLSKQKESRRAQLFIEWLKAGGPSSGAPPPSK (dSer at 2; K(γE-x53) at 14; K(γE-x53) at 40; C-terminal NH2) [SEQ ID NO: 6], the “EC50 hGLP-1R (cAMP)” value in the experiment with human GLP-1 receptor was 141 pM. Besides, the “EC50 hGlucagon-R (cAMP)” value with human glucagon receptor turned out to be 18.9 pM.
Taken in the same sequence, the figures for H[Aib]QGTFTSDLSKQK([γGlu-x53])ESRRAQDFIEWLKAGGPSSGAPPPS-NH2 (reading uncertain) [SEQ ID NO: 77] were 4.3 pM and 11.9 pM.
For the molecule HAEGTFTSDVSSYLEGQAAKEIAWLVKGR-NH2 [GLP-1(7-36)-amide], the “EC50 hGLP-1R (cAMP)” value with human GLP-1 receptor turned out to be 0.7 pM.
